Test results from US6495664.

Tested on: GFP mutant K8 (-2M, -1G, M1R, S2R, K3R, G4A, E5S, E6I, L7I, S65A, K79R, E90N, N149K, V163A, I167T)

## mouse recombinant protein kinase A catalytic subunit (Calbiochem #539-487)
  apparent Km of phosphorylation, measured by 32P incorporation: an apparent Km of 9 µM
  estimated Km of phosphorylation, based on quenching alone: an estimated Km of 7.7 µM
